Literature values as cited in US20250341526A1, “NOVEL DYES” (Quantum-Si Incorporated, priority 2024, published 2025).
Entries after “also recorded” stand apart in the source; their conditions may differ.

tested on: amino acid at a terminal position of a polypeptide; details: Table 1, ClpS proteins; amino acid at terminal position; inferred from literature and/or demonstrated by the inventors; cited from earlier work

Molecule	Binding Pref.
PS396: ClpS amino acid recognition protein, SEQ ID NO: 24 (protein) MSDNDVALKPKIKSKPKLERPKLYKVILVNDDFTPREFVIAVLKMVFRMSEETGYRVMLTAHRLGTSVVVVCARDIAETKAKEAVDFGKEAGFPLMFTTEPEE	F, W
PS397: ClpS amino acid recognition protein, SEQ ID NO: 25 (protein) MSDNEVAPKRKTRVKPKLERPRLYKVILVNDDYTPRDFVVMVLKAIFRMSEEAGYRVMMTAHKLGTSVVVVCARDIAETKAKEATDLGKEAGFPLMFTTEPEE	F, Y, W
PS398: ClpS amino acid recognition protein, SEQ ID NO: 26 (protein) MPLKAQNRSIVGRRDEWPPPTTQSSSETKSESKRVSDTGADTKRKTKTVPKVEKPRLYKVILVNDDYTPREFVLVVLKAVFRMSEDQGYKVMITAHQKGSCVVAVYTRDIAETKAKEAVDLAKEIGFPLMFRTEPEE	F, W
PS404: ClpS amino acid recognition protein, SEQ ID NO: 27 (protein) MPVSVTAPQTKTKTKPKVERPKLYKVILVNDDFTPREFVVRVLKAEFRMSEDQAAKVMMTAHQRGVCVVAVFTRDVAETKATRATDAGRAKGYPLLFTTEPEE	F, Y, W
PS405: ClpS amino acid recognition protein, SEQ ID NO: 28 (protein) MVSIGAATVACAEGRPIFSGYFDWLAAMPETVTVPRTRLRPKTERPKLHKVILVNDDYTPREFVVTVLKGEFHMSEDQAQRVMITAHRRGVCVVAVFTKDVAETKATRASDAGRAKGYPLQFTTEPEE	F, Y, W
PS369: ClpS amino acid recognition protein, SEQ ID NO: 2 (protein) MTSTLRARPARDTDLQHRPYPHYRIIVLDDDVNTFQHVVNCLVTFLPGMTRDQAWAMAQQVDGEGSAVVWTGPQEQAELYHVQLGNHGLTMAPLEPV	F, Y, W, L
PS406: ClpS amino acid recognition protein, SEQ ID NO: 29 (protein) MPDATTTPRTKTLTRTARPPLHKVILVNDDFTPREFVVRLLKAEFRTTGDEAQRIMITAHMKGSCVVAVFTREIAESKATRATETARAEGFPLLFTTEPEE	F, Y, W
PS407: ClpS amino acid recognition protein, SEQ ID NO: 30 (protein) MPSNKRQMCLSDIKNSFNESGIVDWHISPRLANEPSEEGDSDLAVQTVPPELKRPPLYAVVLLNDDYTPMEFVIEILQQYFAMNLDQATQVMLTVHYEGKGVAGVYPRDIAETKANQVNNYARSQGHPLLCQIEPKD	F, Y, W, L
PS408: ClpS amino acid recognition protein, SEQ ID NO: 31 (protein) MTDPPSKGREDVDLATRTKPKTQRPPLYKVLLLNDDFTPMEFVVHILERLFGMTHAQAIEIMLTVHRKGVAVVGVFSHEIAETKVAQVMELARRQQHPLQCTMEKE	F, Y, W, L
PS409: ClpS amino acid recognition protein, SEQ ID NO: 32 (protein) MPARLTDIEGEPNTDPVEDVLLADPELKKPQMYAVVMYNDDYTPMEFVVDVLQNHFKHTLDSAISIMLAIHQQGKGIAGIYPKDIAETKAQTVNRKARQAGYPLLSQIEPQG	F, Y, W, L
PS410: ClpS amino acid recognition protein, SEQ ID NO: 33 (protein) MGDDDQSSREGEGDVAFQTADPELKRPSLYRVVLLNDDYTPMEFVVHILEQFFAMNREKATQVMLAVHTQGKGVCGVYTKDIAETKAALVNDYSRENQHPLLCEVEELDDESR	F, W, L
PS411: ClpS amino acid recognition protein, SEQ ID NO: 34 (protein) MTRPDAPEYDDDLAVEPAEPELARPPLYKVVLHNDDFTPMEFVVEVLQEFFNMDSEQAVQVMLAVHTQGKATCGIFTRDIAETKSYQVNEYARECEHPLMCDIEAAD	F, Y, W, L
PS412: ClpS amino acid recognition protein, SEQ ID NO: 35 (protein) MATKREGSTLLEPTAAKVKPPPLYKVLLLNDDYTPMEFVVLVLKKFFGIDQERATQIMLKVHTEGVGVCGVYPRDIAHTKVEQVVDFARQHQHPLQCTMEES	F, Y, W, L
PS413: ClpS amino acid recognition protein, SEQ ID NO: 36 (protein) MMKQCGSYFLIKAVQDFKPLSKHRSDTDVITETKIQVKQPKLYTVIMYNDNYTTMDFVVYVLVEIFQHSIDKAYQLMMQIHESGQAAVALLPYDLAEMKVDEVTALAEQESYPLLTTIEPA	F, Y, W, L
PS414: ClpS amino acid recognition protein, SEQ ID NO: 37 (protein) MQAAGNEPPDPQNPGDVGNGGDGGNQDGSNTGVVVKTRTRTRKPAMYKVLMLNDDYTPMEFVVHVLERFFQKNREEATRIMLHVHRRGVGVCGVYTYEVAETKVTQVMDLARQNQHPLQCTIEKE	F, Y, W, L
PS370: ClpS amino acid recognition protein, SEQ ID NO: 3 (protein) MFNSLGTVLDPKKSKAKYPEARVIVLDDNFNTFQHVANCLLAIIPRMCEQRAWDLTIKVDKAGSAEVWRGNLEQAELYHEQLFSKGLTMAPIEKT	F, L
PS415: ClpS amino acid recognition protein, SEQ ID NO: 38 (protein) MALPETRTKIKPDVNIKEPPNYRVIYLNDDKTSMEFVIGSLMQHFSYPQQQAVEKTEEVHEHGSSTVAVLPYEMAEQKGIEVTLDARAEGFPLQVKIEPAER	F, Y, W
PS416: ClpS amino acid recognition protein, SEQ ID NO: 39 (protein) MTSQTDTLVKPNIQPPSLFKVIYINDSVTTMEFVVESLMSVFNHSADEATRLTQLVHEEGAAVVAILPYELAEQKGMEVTLLARNNGFPLAIRLEPAV	F, Y, W, L
PS417: ClpS amino acid recognition protein, SEQ ID NO: 40 (protein) MSNLDTDVLIDEKVKVVTTEPEKYRVILLNDDVTPMDFVINILVSIFKHSTDTAKDLTLKIHKEGSAIVGVYTYEIAEQKGIEATNESRQHGFPLQVKIERENTL	F, Y, W
PS418: ClpS amino acid recognition protein, SEQ ID NO: 41 (protein) MSDHNIDHDTSVAVHLDVVVREPPMYRVVLLNDDFTPMEFVVELLMHFFRKTAEQATQIMLNIHHEGVGVCGTYPREIAETKVAQVHQHARTNGHPLKCRMEPS	F, Y, W, L
PS419: ClpS amino acid recognition protein, SEQ ID NO: 42 (protein) MEKEQSLCKEKTHVELSEPKHYKVVFHNDDFTTMDFVVKVLQLVFFKSQLQAEDLTMKIHLEGSATAGIYSYDIAQSKAQKTTQMAREEGFPLRLTVEPEDN	F, Y, W, L
PS420: ClpS amino acid recognition protein, SEQ ID NO: 43 (protein) MSDYSNQISQAGSGVAEDASITLPPERKVVFYNDDFTTMEFVVDVLVSIFNKSHSEAEELMQTVHQEGSSVVGVYTYDIAVSRTNLTIQAARKNGFPLRVEVE	F, Y, W, L
PS421: ClpS amino acid recognition protein, SEQ ID NO: 44 (protein) MTTPNKRPEFEPEIGLEDEVGEPRKYKVLLHNDDYTTMDFVVQVLIEVFRKSETEATHIMLTIHEKGVGTCGIYPAEVAETKINEVHTRARREGFPLRASMEEV	F, Y, W, L
PS422: ClpS amino acid recognition protein, SEQ ID NO: 45 (protein) MTQIKPQTIPDTDVISQTQSDWQMPDLYAVIMHNDDYTTMDFVVFLLNAVFDKPIEQAYQLMMQIHQTGRAVVAILPYEIAEMKVDEATSLAEQEQFPLFISIEQA	F, Y, W, L
PS423: ClpS amino acid recognition protein, SEQ ID NO: 46 (protein) MAPTPAGAAVLDKQQQRRHKHASRYRVLLHNDPVNTMEYVVESLRQVVPQLSEQDAIAVMVEAHNTGVGLVIVCDIEPAEFYCEQLKTKGLTSSIEPED	F, Y, W

same assay, conditions: Table 2; amino acid at terminal position (phosphotyrosine also internal); inferred from literature and/or demonstrated by the inventors; cited from earlier work

Molecule	Binding Pref.
Rattus norvegicus p62 protein: amino acid recognition protein, SEQ ID NO: 124	K, R, H,; also recorded: W, F, Y
H. sapiens p62 fragment 126-180: amino acid recognition protein, SEQ ID NO: 122	K, R, H,; also recorded: W, F, Y
H. sapiens p62 fragment 1-180: amino acid recognition protein, SEQ ID NO: 121	K, R, H,; also recorded: W, F, Y
